Test results: patent publication US11319368B2, “Treatment of hepatotoxicity with IL-11 antibody” (Singapore Health Services PTE LTD., priority 2019, dated 2022)

How the values were obtained:
AILI = assay: X209, NAC or NAC+X209 3 h after APAP in mice
Description: Mice were administered anti-IL11Rα (X209) or IgG isotype control antibody at different times and doses, as described above or in the figure legends.
The levels of alanine transaminase (ALT) or aspartate aminotransferase (AST) in mouse serum and hepatocyte supernatant were measured using ALT Activity (ab105134, Abcam) or AST (ab105135, Abcam) Assay Kits. Liver glutathione sulfhydryl (GSH) measurements were performed using Glutathione Colorimetric Detection Kit (EIAGSHC, Thermo Fisher). All colorimetric assays were performed according to the manufacturer's protocol.
Western blots were carried out from hepatocyte and liver tissue lysates. Hepatocytes and tissues were homogenized in radioimmunoprecipitation assay (RIPA) buffer containing protease and phosphatase inhibitors (Thermo Fisher), followed by centrifugation to clear the lysate. Protein concentrations were determined by Bradford assay (Bio-Rad). Equal amounts of protein lysates were separated by SDS-PAGE, transferred to PVDF membrane, and subjected to immunoblot analysis for the indicated primary antibodies. Proteins were visualized using the ECL detection system (Pierce) with the appropriate secondary antibodies.

[1] = system: rheumatoid synovial cells; details: cited from earlier work
[2] = system: primary human hepatocytes; assay: hyperIL11 or hyperIL6 stimulation of primary human hepatocytes, with or without sgp130; format: cell-based
[3] = system: primary human hepatocytes; assay: IL11 stimulation of primary human hepatocytes with sgp130 or sIL11Rα; format: cell-based; details: for effect on IL11-induced hepatocyte death and signaling: IL11 20 ng/ml, sgp130, sIL11Rα 1 μg/ml; for effect on ALT release from IL11-stimulated hepatocytes: increasing doses

## CC(=O)N[C@@H](CS)C(=O)O [NAC, N-acetyl-cysteine, reference compound]
AILI; 3 h after APAP, NAC 500 mg kg^-1, X209 5 mg kg^-1
  ALT reduction: 38%
AILI; NAC 500 mg kg^-1 3 h after APAP
  serum levels of ALT and AST: reduced serum levels of ALT and AST

## interferon-gamma: interferon-gamma (IFNγ)
[1]
  expression of IL-11: reduction in the expression of IL-11

## COc1ccc2c(c1)c(CC(=O)O)c(C)n2C(=O)c1ccc(Cl)cc1 [indomethacin, reference compound]
[1]
  expression of IL-11: reduction in the expression of IL-11

B1: HyperIL11: IL11Rα:IL11 fusion protein which mimics the trans-signalling complex (SEQ ID NO:21) (protein)
chain: MSSSCSGLSRVLVAVATALVSASSPCPQAWGPPGVQYGQPGRSVKLCCPGVTAGDPVSWFRDGEPKLLQGPDSGLGHELVLAQADSTDEGTYICQTLDGALGGTVTLQLGYPPARPVVSCQAADYENFSCTWSPSQISGLPTRYLTSYRKKTVLGADSQRRSPSTGPWPCPQDPLGAARCVVHGAEFWSQYRINVTEVNPLGASTRLLDVSLQSILRPDPPQGLRVESVPGYPRRLRASWTYPASWPCQPHFLLKFRLQYRPAQHPAWSTVEPAGLEEVITDAVAGLPHAVRVSARDFLDAGTWSTWSPEAWGTPSTGPAGQSGGGGGSGGGSGGGSVPGPPPGPPRVSPDPRAELDSTVLLTRSLLADTRQLAAQLRDKFPADGDHNLDSLPTLAMSAGALGALQLPGVLTRLRADLLSYLRHVQWLRRAGGSSLKTLEPELGTLQARLDRLLRRLQLLMSRLALPQPPPDPPAPPLAPPSSAWGGIRAAHAILGGLHLTLDWAVRGLLLLKTRL
modifications: Hyper IL-11 (IL-11RAIL-11 fusion)
[2]; 2.5 ng/ml to 20 ng/ml, 24 h
  ERK and JNK activation: activated ERK and JNK in a dose-dependent manner
[2]; dose range, 24 h
  alanine transaminase (ALT) in the media: dose-dependent increase in alanine transaminase (ALT)

B2: sIL11Rα: soluble IL11Rα (human IL11Rα, R&D systems) (protein, UniProt Q14626 24-370, looked up)
extracellular domain: SPCPQAWGPPGVQYGQPGRSVKLCCPGVTAGDPVSWFRDGEPKLLQGPDSGLGHELVLAQADSTDEGTYICQTLDGALGGTVTLQLGYPPARPVVSCQAADYENFSCTWSPSQISGLPTRYLTSYRKKTVLGADSQRRSPSTGPWPCPQDPLGAARCVVHGAEFWSQYRINVTEVNPLGASTRLLDVSLQSILRPDPPQGLRVESVPGYPRRLRASWTYPASWPCQPHFLLKFRLQYRPAQHPAWSTVEPAGLEEVITDAVAGLPHAVRVSARDFLDAGTWSTWSPEAWGTPSTGTIPKEIPAWGQLHTQPEVEPQVDSPAPPRPSLQPHPRLLDHRDSVEQVAVLA
modifications: extracellular domain
[3]
  effect on IL11-induced hepatocyte death and signaling: unaffected
  effect on ALT release from IL11-stimulated hepatocytes: no effect on ALT release

B3: sgp130: human soluble gp130 Fc, inhibitor of trans-signaling complexes acting through gp130 (protein)
chain: ELLDPCGYISPESPVVQLHSNFTAVCVLKEKCMDYFHVNANYIVWKTNHFTIPKEQYTIINRTASSVTFTDIASLNIQLTCNILTFGQLEQNVYGITIISGLPPEKPKNLSCIVNEGKKMRCEWDGGRETHLETNFTLKSEWATHKFADCKAKRDTPTSCTVDYSTVYFVNIEVWVEAENALGKVTSDHINFDPVYKVKPNPPHNLSVINSEELSSILKLTWTNPSIKSVIILKYNIQYRTKDASTWSQIPPEDTASTRSSFTVQDLKPFTEYVFRIRCMKEDGKGYWSDWSEEASGITYEDRPSKAPSFWYKIDPSHTQGYRTVQLVWKTLPPFEANGKILDYEVTLTRWKSHLQNYTVNATKLTVNLTNDRYLATLTVRNLVGKSDAAVLTIPACDFQATHPVMDLKAFPKDNMLWVEWTTPRESVKKYILEWCVLSDKAPCITDWQQEDGTVHRTYLRGNLAESKCYLITVTPVYADGPGSPESIKAYLKQAPPSKGPTVRTKKVGKNEAVLEWDQLPVDVQNGFIRNYTIFYRTIIGNETAVNVDSSHTEYTLSSLTSDTLYMVRMAAYTDEGGKDGPEFTFTTPKFAQGEIE
modifications: left off: a dimerising Fc or GST
[3]
  effect on IL11-induced hepatocyte death and signaling: unaffected
  effect on ALT release from IL11-stimulated hepatocytes: no effect on ALT release
[2]; increasing amounts of sgp130
  hepatotoxic effects of hyperIL11 (ALT): inhibited the hepatotoxic effects of hyperIL11
[2]; sgp130 with hyperIL11 or hyperIL6 20 ng/ml
  signaling pathways downstream of hyperIL11 and hyperIL6: blocked the activation of signaling pathways downstream of both hyperIL11 (p-ERK/p-JNK) and hyperIL6 (p-STAT3)
